# System: c-Src;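 also: 11-residue human phosphosite peptides and single-mutation variants displayed on the E. coli surface, counted by deep sequencing, each peptide's frequency after selection divided by its frequency in the unselected input library; frequency after pTyr selection over input frequency; kinase dosed for 20-30% of maximal phosphorylation in three min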
# Assay: phosphorylation enrichment, bacterial display (enrichment ratio); higher = better substrate or ligand; peptides without Tyr show the background
# 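For SH2 binding enrichment of the phosphorylated peptide, bacterial display in this document: peptide library displayed on the E. coli surface as eCPX fusions, selected cells deep-sequenced, score is each peptide's frequency after selection divided by its frequency in the input.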
row,Sequence,phosphorylation enrichment
1,DDPRRYQKYGY [OAS1_Y362],0.438
2,VAVVQYSGTGQ [COL6A1_Y878],0.451
3,TVINKYQGKLF [HGD_Y249],0.449
4,IEKLPYIDKWF [CPS1_Y872_T871P],0.479
5,NRDNTYNPVSE [FGA_Y127_R129P],0.522
6,QNTGVYYDLYG [PTPN11_Y62_D61V],7.18
7,VKPENYRRPDI [VHL_Y175_L178P],0.436
8,THEVRYISAGQ [SLCO4A1_Y77_V78I],0.418
9,KLIMEYLPFGS [JAK2_Y931_YF],0.558
10,ASMAKYYASGI [ACADSB_Y372_E376G],0.444
11,NTEGGYRCICA [CRELD1_Y328],0.465
12,GDEEDYEEIPG [EGFR_opt_E_2015],0.598
13,NAPNSYGRRPI [CDKN2A_Y44],0.75
14,EMTAEYACTRK [ACAD9_Y325],0.412
15,VSRGRYRPEEC [B4GALT4_Y113_Q116E],0.562
16,VIGRMYDFHVL [RPF2_Y109_YF],0.598
17,VHNLDYYKMTT [FGFR3_Y647_K650M],0.496
18,SREALYNETDP [CACNA1A_Y794_M797T],0.722
19,LAAAGYDVKKN [H1-3_Y72_E75K],0.324
20,ALEQKYWALGQ [MAP1A_Y1555],1.82
21,TVDASYFGGRG [ANTXR2_Y380_YF],0.413
22,SVVVPHEPPEV [TP53_Y220_Y220H],0.396
23,CETMEYLESKQ [BTK_Y511_A508T],0.531
24,VDEERYDIEAK [TNNI3_Y112],0.483
25,TNGFTYGSSHQ [MANEA_Y331],0.404
26,GADDSYFTVRS [ZAP70_Y492_A495V_YF],0.846
27,GNFSGYDDAWD [POLR1C_Y36_YF],0.584
28,QRKPSYNQLAS [BRCA2_Y71],0.415
29,VTSLKYSTPPF [BRIP1_Y916_S919P_YF],0.436

# Target: Grb2 SH2 (UniProt P62993)
# Sequence (P62993 whole entry, looked up): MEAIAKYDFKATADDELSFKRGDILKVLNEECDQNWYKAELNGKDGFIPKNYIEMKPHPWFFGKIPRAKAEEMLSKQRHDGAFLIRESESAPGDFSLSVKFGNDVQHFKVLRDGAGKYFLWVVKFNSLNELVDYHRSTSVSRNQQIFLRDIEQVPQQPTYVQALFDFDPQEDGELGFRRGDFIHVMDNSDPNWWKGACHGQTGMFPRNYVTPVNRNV
# Assay: SH2 binding enrichment of the phosphorylated peptide, bacterial display (enrichment ratio); higher = better substrate or ligand; peptides without Tyr show the background
row,Sequence,SH2 binding enrichment
1,DDPRRYQKYGY [OAS1_Y362],1.05
2,VAVVQYSGTGQ [COL6A1_Y878],0.767
3,TVINKYQGKLF [HGD_Y249],0.838
4,IEKLPYIDKWF [CPS1_Y872_T871P],0.782
5,NRDNTYNPVSE [FGA_Y127_R129P],0.694
6,QNTGVYYDLYG [PTPN11_Y62_D61V],1.38
7,VKPENYRRPDI [VHL_Y175_L178P],0.846
8,THEVRYISAGQ [SLCO4A1_Y77_V78I],0.726
9,KLIMEYLPFGS [JAK2_Y931_YF],1
10,ASMAKYYASGI [ACADSB_Y372_E376G],0.739
11,NTEGGYRCICA [CRELD1_Y328],0.97
12,GDEEDYEEIPG [EGFR_opt_E_2015],0.993
13,NAPNSYGRRPI [CDKN2A_Y44],0.726
14,EMTAEYACTRK [ACAD9_Y325],1.22
15,VSRGRYRPEEC [B4GALT4_Y113_Q116E],0.699
16,VIGRMYDFHVL [RPF2_Y109_YF],1.05
17,VHNLDYYKMTT [FGFR3_Y647_K650M],0.731
18,SREALYNETDP [CACNA1A_Y794_M797T],0.89
19,LAAAGYDVKKN [H1-3_Y72_E75K],0.66
20,ALEQKYWALGQ [MAP1A_Y1555],0.867
21,TVDASYFGGRG [ANTXR2_Y380_YF],1.01
22,SVVVPHEPPEV [TP53_Y220_Y220H],0.956
23,CETMEYLESKQ [BTK_Y511_A508T],0.63
24,VDEERYDIEAK [TNNI3_Y112],0.852
25,TNGFTYGSSHQ [MANEA_Y331],0.74
26,GADDSYFTVRS [ZAP70_Y492_A495V_YF],0.854
27,GNFSGYDDAWD [POLR1C_Y36_YF],0.832
28,QRKPSYNQLAS [BRCA2_Y71],1.59
29,VTSLKYSTPPF [BRIP1_Y916_S919P_YF],0.929

# From the supplement of paper PMC10065799, “High-throughput profiling of sequence recognition by tyrosine kinases and SH2 domains using bacterial peptide display” (eLife, 2023)
